Measurements published in publication PMC11480844 (2024).

B1: H2-Kb / Ed8 (parent complex)
chain 1: AQSVTQPDARVTVSEGASLQLRCKYSYFGTPYLFWYVQYPRQGLQLLLKYYPGDPVVQGVNGFEAEFSKSNSSFHLRKASVHWSDWAVYFCAVSPGSGGKLTLGAGTRLQVNL
chain 2: DSGVVQSPRHIIKEKGGRSVLTCIPISGHSNVVWYQQTLGKELKFLIQHYEKVERDKGFLPSRFSVQQFDDYHSEMNMSALELEDSAMYFCASSPRASNYTFGSGTRLLVI
chain 3: not shown
chain 4: IQKTPQIQVYSRHPPENGKPNILNCYVTQFHPPHIEIQMLKNGKKIPKVEMSDMSFSKDWSFYILAHTEFTPTETDTYACRVKHDSMAEPKTVYWDRDM
chain 5: SIINFEKL
B2: H2-Kb / Ed39 (parent complex)
chain 1: GEQVEQRPPHLSVREGDSAVIICTYTDPNSYYFFWYKQEPGAGLQLLMKVFSSTEINEGQGFTVLLNKKDKQLSLNLTAAHPGDSAVYFCATMSNYNVLYFGSGTKLTVEP
chain 2: GALVYQYPRRTICKSGTSMRMECQAVGFQATSVAWYRQSPQKTFELIALSTVNSAIKYEQNFTQEKFPISHPNLSFSSMTVLNAYLEDRGLYLCGARDGSYEQYFGPGTRLTVL
chain 3: not shown
chain 4: B1 chain 4
chain 5: SIINFEKL
Also: test concentration or dose not given here.

Variants of: B1
Test: % of reporter cells activated (NFAT-GFP), raw
Work on chain 5 E6K yielded a ratio to parent of 1.14. Variant chain 5 E6T has a ratio to parent of 0.127. With chain 5 I2G the ratio to parent was 1.3. Work on chain 5 N4D yielded a ratio to parent of 0.436. In the case of chain 5 I3E, the ratio to parent is reported as 1.17. Work on chain 5 F5R yielded a ratio to parent of 1.19. chain 5 F5H gave a ratio to parent of 1.23. For chain 5 E6D, the ratio to parent was 1.13. In the case of chain 5 E6S, the ratio to parent is reported as 0.349. chain 5 I3V gave a ratio to parent of 1.26. chain 5 L8R gave a ratio to parent of 1.24. Work on chain 5 I3G yielded a ratio to parent of 1.22. With chain 5 E6F the ratio to parent was 0.0912. chain 5 E6H showed a ratio to parent of 0.573. chain 5 F5A showed a ratio to parent of 1.24. For chain 5 S1F, the ratio to parent was 1.25.

Variants of: B2
Test: % of reporter cells activated (NFAT-GFP), raw
With chain 5 F5V the ratio to parent was 0.821. chain 5 I3D was tested, and the ratio to parent was 0.402. Variant chain 5 I3R has a ratio to parent of 0.0638. chain 5 S1D was tested, and the ratio to parent was 0.00365. In the case of chain 5 F5I, the ratio to parent is reported as 0.622. chain 5 E6I gave a ratio to parent of 0.00482. For chain 5 F5A, the ratio to parent was 0.973. chain 5 L8K gave a ratio to parent of 0.485. chain 5 I3V showed a ratio to parent of 0.956. Work on chain 5 I3C yielded a ratio to parent of 0.431. chain 5 N4P was tested, and the ratio to parent was 0.174. For chain 5 I2Y, the ratio to parent was 0.284. With chain 5 N4V the ratio to parent was 0.00191. For chain 5 N4Y, the ratio to parent was 0.0203. chain 5 I2Q was tested, and the ratio to parent was 0.366. chain 5 S1P gave a ratio to parent of 0.00622. chain 5 I2H showed a ratio to parent of 0.244. chain 5 K7A was tested, and the ratio to parent was 0.112. chain 5 F5M showed a ratio to parent of 1.01. For chain 5 L8N, the ratio to parent was 0.884. In the case of chain 5 L8Q, the ratio to parent is reported as 0.617. chain 5 I3Y gave a ratio to parent of 0.0404. Work on chain 5 N4S yielded a ratio to parent of 0.0741. chain 5 I3N gave a ratio to parent of 0.314. chain 5 K7I was tested, and the ratio to parent was 0.0214. chain 5 E6Q gave a ratio to parent of 0.0946. chain 5 S1E gave a ratio to parent of 0.00392. Variant chain 5 K7F has a ratio to parent of 0.0761. Variant chain 5 E6C has a ratio to parent of 0.0124. With chain 5 I3F the ratio to parent was 0.0488. With chain 5 E6T the ratio to parent was 0.034. Variant chain 5 N4W has a ratio to parent of 0.127. chain 5 S1T showed a ratio to parent of 0.00457. For chain 5 I2V, the ratio to parent was 1.09. chain 5 K7L gave a ratio to parent of 0.408. chain 5 S1Q was tested, and the ratio to parent was 0.00347. chain 5 I2R showed a ratio to parent of 0.593. chain 5 N4C was tested, and the ratio to parent was 0.0192. With chain 5 N4K the ratio to parent was 0.0498. chain 5 I2A gave a ratio to parent of 0.954. For chain 5 I2D, the ratio to parent was 0.612. chain 5 S1A was tested, and the ratio to parent was 0.0073. chain 5 E6Y showed a ratio to parent of 0.0117. chain 5 L8D was tested, and the ratio to parent was 0.425. chain 5 N4T gave a ratio to parent of 0.00203. Variant chain 5 L8P has a ratio to parent of 0.453. Work on chain 5 E6R yielded a ratio to parent of 0.00443. chain 5 N4L showed a ratio to parent of 0.196. In the case of chain 5 I3P, the ratio to parent is reported as 0.293. For chain 5 E6N, the ratio to parent was 0.00523. With chain 5 E6H the ratio to parent was 0.0355. chain 5 L8W showed a ratio to parent of 0.468. chain 5 E6A was tested, and the ratio to parent was 0.0073. chain 5 E6D gave a ratio to parent of 0.265. chain 5 F5E was tested, and the ratio to parent was 0.259. chain 5 F5D showed a ratio to parent of 0.358. chain 5 S1W gave a ratio to parent of 0.0114. In the case of chain 5 L8E, the ratio to parent is reported as 0.361. In the case of chain 5 S1C, the ratio to parent is reported as 0.0621. Work on chain 5 E6S yielded a ratio to parent of 0.0298. chain 5 S1G was tested, and the ratio to parent was 0.272. chain 5 N4A showed a ratio to parent of 0.0243. For chain 5 S1N, the ratio to parent was 0.00689. chain 5 E6G gave a ratio to parent of 0.00768. chain 5 N4E showed a ratio to parent of 0.106. chain 5 I2N was tested, and the ratio to parent was 0.18. For chain 5 E6L, the ratio to parent was 0.0111. Variant chain 5 E6V has a ratio to parent of 0.0176. Work on chain 5 N4G yielded a ratio to parent of 0.114. With chain 5 I3A the ratio to parent was 0.56. With chain 5 K7D the ratio to parent was 0.00558. With chain 5 I3E the ratio to parent was 0.558. chain 5 I3S gave a ratio to parent of 0.12. chain 5 F5Q gave a ratio to parent of 0.712. With chain 5 E6W the ratio to parent was 0.00837. With chain 5 I2M the ratio to parent was 0.907. With chain 5 N4F the ratio to parent was 0.0119. Work on chain 5 F5Y yielded a ratio to parent of 0.867. Variant chain 5 N4M has a ratio to parent of 0.00879. chain 5 F5T gave a ratio to parent of 0.844. In the case of chain 5 K7W, the ratio to parent is reported as 0.355. In the case of chain 5 S1H, the ratio to parent is reported as 0.0798. chain 5 F5S showed a ratio to parent of 0.829. In the case of chain 5 I2T, the ratio to parent is reported as 0.781. In the case of chain 5 E6F, the ratio to parent is reported as 0.00457. Variant chain 5 E6M has a ratio to parent of 0.0331. For chain 5 I3L, the ratio to parent was 0.706. In the case of chain 5 S1V, the ratio to parent is reported as 0.0243. Work on chain 5 K7M yielded a ratio to parent of 0.665. chain 5 I2G gave a ratio to parent of 0.841. chain 5 I2W was tested, and the ratio to parent was 0.453. chain 5 L8V gave a ratio to parent of 0.591. For chain 5 S1L, the ratio to parent was 0.00419. In the case of chain 5 I3K, the ratio to parent is reported as 0.286. With chain 5 L8G the ratio to parent was 0.676. In the case of chain 5 K7Q, the ratio to parent is reported as 0.865. Work on chain 5 L8R yielded a ratio to parent of 0.801. chain 5 F5R gave a ratio to parent of 0.562. Variant chain 5 I3G has a ratio to parent of 0.156. With chain 5 L8A the ratio to parent was 0.663. chain 5 L8S gave a ratio to parent of 0.462. Variant chain 5 F5W has a ratio to parent of 0.738. With chain 5 S1K the ratio to parent was 0.0783. chain 5 L8I gave a ratio to parent of 0.771. With chain 5 S1I the ratio to parent was 0.00338. In the case of chain 5 I2F, the ratio to parent is reported as 0.683. For chain 5 K7H, the ratio to parent was 0.0199. Work on chain 5 L8Y yielded a ratio to parent of 0.83. In the case of chain 5 I2S, the ratio to parent is reported as 0.779. Work on chain 5 K7S yielded a ratio to parent of 0.293. With chain 5 F5H the ratio to parent was 0.791. In the case of chain 5 K7Y, the ratio to parent is reported as 0.0483. For chain 5 E6P, the ratio to parent was 0.00676. Variant chain 5 L8M has a ratio to parent of 0.762. chain 5 F5P gave a ratio to parent of 0.281. chain 5 F5N gave a ratio to parent of 0.484. Work on chain 5 F5K yielded a ratio to parent of 0.374. For chain 5 I3M, the ratio to parent was 0.564. chain 5 K7P showed a ratio to parent of 0.326. chain 5 N4D showed a ratio to parent of 1.25. Variant chain 5 N4R has a ratio to parent of 0.22. chain 5 S1M was tested, and the ratio to parent was 0.00499. chain 5 I2E gave a ratio to parent of 0.719. chain 5 I2K was tested, and the ratio to parent was 0.396. chain 5 L8T was tested, and the ratio to parent was 0.703. In the case of chain 5 K7V, the ratio to parent is reported as 0.115. chain 5 F5L was tested, and the ratio to parent was 0.765. For chain 5 S1F, the ratio to parent was 0.00514. Variant chain 5 K7C has a ratio to parent of 0.331. Variant chain 5 N4H has a ratio to parent of 0.124. With chain 5 K7R the ratio to parent was 0.355. Work on chain 5 L8F yielded a ratio to parent of 0.64. With chain 5 I3T the ratio to parent was 0.416. For chain 5 I3H, the ratio to parent was 0.0308.
